According to patent US20200199213A1 (Eli Lilly, published 2020):
Numbering of substitutions follows the chain as printed. In names and notes the source's numbering stands.

T1: human ANGPTL8 (human, UniProt Q6UXH0 22-198)
T1 construct: Biotinylated in the ELISA assays; also called hANGPTL8; free ANGPTL8
T1 sequence: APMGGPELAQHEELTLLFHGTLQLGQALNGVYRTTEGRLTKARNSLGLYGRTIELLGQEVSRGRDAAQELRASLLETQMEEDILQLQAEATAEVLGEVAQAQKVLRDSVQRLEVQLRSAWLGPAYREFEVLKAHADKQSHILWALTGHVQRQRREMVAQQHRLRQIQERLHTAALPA

T2: human ANGPTL3 (human, UniProt Q9Y5C1 17-460)
T2 construct: Biotinylated in the ELISA assays; also called hANGPTL3; free ANGPTL3
T2 sequence: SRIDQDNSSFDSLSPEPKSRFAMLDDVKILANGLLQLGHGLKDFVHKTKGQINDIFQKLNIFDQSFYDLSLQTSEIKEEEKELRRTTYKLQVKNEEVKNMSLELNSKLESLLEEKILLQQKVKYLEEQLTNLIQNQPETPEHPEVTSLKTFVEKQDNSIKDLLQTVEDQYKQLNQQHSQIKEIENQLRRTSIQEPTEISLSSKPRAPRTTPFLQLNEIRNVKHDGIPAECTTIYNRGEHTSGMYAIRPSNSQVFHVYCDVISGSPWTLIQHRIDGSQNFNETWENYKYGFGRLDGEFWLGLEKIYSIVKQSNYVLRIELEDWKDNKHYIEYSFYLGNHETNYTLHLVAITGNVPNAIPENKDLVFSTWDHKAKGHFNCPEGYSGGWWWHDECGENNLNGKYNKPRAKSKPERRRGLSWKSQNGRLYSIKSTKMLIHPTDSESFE

T3: human ANGPTL3/8 complex (human, UniProt Q9Y5C1 17-460; Q6UXH0 22-198, limits assumed)
T3 construct: also called hANGPTL3/8 complex; ANGTPL3/8 complex
T3 sequence 1: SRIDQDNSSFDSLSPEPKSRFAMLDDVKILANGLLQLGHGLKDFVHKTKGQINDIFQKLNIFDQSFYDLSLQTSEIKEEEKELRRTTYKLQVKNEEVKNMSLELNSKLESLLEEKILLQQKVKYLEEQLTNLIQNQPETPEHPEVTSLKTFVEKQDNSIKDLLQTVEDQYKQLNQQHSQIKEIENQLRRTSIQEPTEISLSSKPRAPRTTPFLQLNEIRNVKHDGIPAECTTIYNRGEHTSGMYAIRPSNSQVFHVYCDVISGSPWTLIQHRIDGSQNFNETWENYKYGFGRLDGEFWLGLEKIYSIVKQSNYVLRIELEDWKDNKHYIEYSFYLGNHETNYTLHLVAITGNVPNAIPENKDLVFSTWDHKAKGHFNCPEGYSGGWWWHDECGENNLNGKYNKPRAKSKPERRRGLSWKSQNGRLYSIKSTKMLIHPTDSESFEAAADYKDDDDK
T3 sequence 2: T1 sequence

T4: mouse ANGPTL3/8 complex (mouse, UniProt Q9R182 17-455; Q8R1L8 16-198, limits assumed)
T4 sequence (looked up) 1: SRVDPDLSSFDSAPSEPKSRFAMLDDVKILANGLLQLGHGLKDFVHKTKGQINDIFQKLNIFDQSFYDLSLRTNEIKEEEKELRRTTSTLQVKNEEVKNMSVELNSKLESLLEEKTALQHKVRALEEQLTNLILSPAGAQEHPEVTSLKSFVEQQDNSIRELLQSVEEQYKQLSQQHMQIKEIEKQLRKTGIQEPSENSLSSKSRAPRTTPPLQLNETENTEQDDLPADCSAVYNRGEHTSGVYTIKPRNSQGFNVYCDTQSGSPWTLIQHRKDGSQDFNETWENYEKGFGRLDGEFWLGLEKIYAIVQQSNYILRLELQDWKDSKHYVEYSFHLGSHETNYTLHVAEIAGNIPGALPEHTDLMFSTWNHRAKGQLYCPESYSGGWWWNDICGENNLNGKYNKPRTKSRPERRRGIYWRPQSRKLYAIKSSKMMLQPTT
T4 sequence (looked up) 2: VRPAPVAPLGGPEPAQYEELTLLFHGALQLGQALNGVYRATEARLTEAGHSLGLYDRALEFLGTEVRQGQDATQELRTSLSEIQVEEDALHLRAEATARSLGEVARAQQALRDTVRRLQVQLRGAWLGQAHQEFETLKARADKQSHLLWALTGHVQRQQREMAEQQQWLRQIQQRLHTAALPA

B1: anti-ANGPTL3/8 complex Ab having a LC of SEQ ID NO:5 and a HC of SEQ ID NO:6 (antibody, human IgG4 S228P, kappa, F234A L235A, V domains shown)
VH: QVTLKESGPTLVKPTQTLTLTCTFSGFSLSISGVGVGWIRQPPGKALEWLALIYRNDDKRYSPSLKSRLTITKDTSKNQVVLTLTNMDPVDTATYYCARTYSSGWYGNWFDPWGQGTLVTVSS
VL: DIVMTQTPLSLPVTPGEPASISCRSSQSLLDSDDGNTYLDWYLQKPGQSPQLLIYMLSYRASGVPDRFSGSGSGTDFTLKISRVEAEDVGIYYCMQRIEFPLTFGGGTKVEIKR
notes: In the ELISA assays tested as IgG from CHO supernatants; also called the Ab
B2: Ab with LC variant having a E99Q mutation (SEQ ID NO:25) and a HC of SEQ ID NO:6 (antibody, human IgG4 S228P, kappa, F234A L235A, V domains shown)
VH: B1 VH
VL: B1 VL with E99Q
notes: also called E99Q Variant Ab; E99Q Ab
B3: Ab with LC variant having a D31S mutation (SEQ ID NO:21) and a HC of SEQ ID NO:6 (antibody, human IgG4 S228P, kappa, F234A L235A, V domains shown)
VH: B1 VH
VL: B1 VL with D31S
notes: also called D31S Variant Ab; D31S Ab
B4: Ab with LC variant having a D33A mutation (SEQ ID NO:22) and a HC of SEQ ID NO:6 (antibody, human IgG4 S228P, kappa, F234A L235A, V domains shown)
VH: B1 VH
VL: B1 VL with D33A
notes: also called D33A Variant Ab; D33A Ab

Molecular target: T1, human ANGPTL8
Test: ELISA; Ab captured by anti-human Fc; biotinylated antigen at 11.1 nM
Experimental: (§1) ELISA Assay: Ab binding selectivity to either the ANGPTL3/8 complex, free ANGPTL3 or free ANGPTL8 is verified using standard ELISA assays. […] Ab from CHO supernatants after expression in CHO cells is then captured to the assay plate and results is an Ab concentration of 2 μg/ml. Biotinylated antigen (ANGPTL3, ANGPTL8 or ANGPTL3/8 complex) is added at varying concentrations by serial dilution to allow for Ab/antigen binding. Ab/antigen complexes are detected after the addition of alkaline phosphatase-conjugated neutravidin, and alkaline phosphatase substrate, and subsequent measurement of the optical density at 560 nm.

In order of rising “OD at 560 nm” value:
1. B1  0.045 OD 560 nm
2. B4  0.048 OD 560 nm
3. B2  0.062 OD 560 nm
4. B3  0.062 OD 560 nm

Molecular target: T2, human ANGPTL3
Test: ELISA; Ab captured by anti-human Fc; biotinylated antigen at 1.23 nM
Experimental: as §1

In order of falling “OD at 560 nm” value:
1. B2  0.059 OD 560 nm
2. B3  0.059 OD 560 nm
3. B4  0.057 OD 560 nm
4. B1  0.043 OD 560 nm

Molecular target: T1, human ANGPTL8
Test: as above
Experimental: as §1

In order of rising “OD at 560 nm” value:
1. B1  0.043 OD 560 nm
2. B4  0.049 OD 560 nm
3. B2  0.058 OD 560 nm
4. B3  0.058 OD 560 nm

Molecular target: T3, human ANGPTL3/8 complex
Test: as above
Experimental: as §1

In order of falling “OD at 560 nm” value:
1. B2  0.575 OD 560 nm
2. B3  0.575 OD 560 nm
3. B1  0.51 OD 560 nm
4. B4  0.491 OD 560 nm

Molecular target: T1, human ANGPTL8
Test: ELISA; Ab captured by anti-human Fc; biotinylated antigen at 3.70 nM
Experimental: as §1

In order of falling “OD at 560 nm” value:
1. B2  0.056 OD 560 nm
2. B3  0.056 OD 560 nm
3. B1  0.051 OD 560 nm
4. B4  0.048 OD 560 nm

Molecular target: T3, human ANGPTL3/8 complex
Test: as above
Experimental: as §1

In order of falling “OD at 560 nm” value:
1. B2  1.13 OD 560 nm
2. B3  1.13 OD 560 nm
3. B1  1.04 OD 560 nm
4. B4  1.04 OD 560 nm

Molecular target: T3, human ANGPTL3/8 complex
Test: cell-based or functional assay

In order of falling “% Max Derepression LPL” value:
1. B2  106%
2. B3  106%
3. B4  103%

In order of rising “Ab EC50 (nM), derepression of LPL” value:
1. B2  0.49 nM
2. B3  0.86 nM
3. B4  1.14 nM

Molecular target: T4, mouse ANGPTL3/8 complex
Test: cell-based or functional assay

In order of rising “% Max Derepression LPL” value:
1. B4  106%
2. B2  110%
3. B3  110%

In order of rising “Ab EC50 (nM), derepression of LPL” value:
1. B2  1.65 nM
2. B3  1.79 nM
3. B4  4.07 nM

Molecular target: T2, human ANGPTL3
Test: ELISA; Ab captured by anti-human Fc; biotinylated antigen at 100 nM
Experimental: as §1

In order of rising “OD at 560 nm” value:
1. B1  0.081 OD 560 nm
2. B4  0.082 OD 560 nm
3. B2  0.084 OD 560 nm
4. B3  0.084 OD 560 nm

Molecular target: T1, human ANGPTL8
Test: as above
Experimental: as §1

In order of falling “OD at 560 nm” value:
1. B2  0.098 OD 560 nm
2. B3  0.098 OD 560 nm
3. B4  0.078 OD 560 nm
4. B1  0.072 OD 560 nm

Molecular target: T3, human ANGPTL3/8 complex
Test: as above
Experimental: as §1

In order of falling “OD at 560 nm” value:
1. B1  2.71 OD 560 nm
2. B2  2.47 OD 560 nm
3. B3  2.47 OD 560 nm
4. B4  2.39 OD 560 nm
